According to doi:10.1101/2020.10.28.359810 (bioRxiv, 2020):

B1: receptor-interaction domain from NCOA3 (domain or fragment, UniProt Q9Y6Q9 621-821, looked up)
chain: LLQLLTCSSDDRGHSSLTNSPLDSSCKESSVSVTSPSGVSSSTSGGVSSTSNMHGSLLQEKHRILHKLLQNGNSPAEVAKITAEATGKDTSSITSCGDGNVVKQEQLSPKKKENNALLRYLLDRDDPSDALSKELQPQVEGVDNKMSQCTSSTIPSSSQEKDPKIKTETSEEGSGDLDNLDAILGDLTSSDFYNNSISSNG

Legend:
[1] = target: T1, TLX ligand-binding domain (UniProt Q9Y466 155-385); experiment: BLI
[2] = target: T1, TLX ligand-binding domain; experiment: AlphaScreen or HTRF

T1 sequence (Q9Y466 155-385): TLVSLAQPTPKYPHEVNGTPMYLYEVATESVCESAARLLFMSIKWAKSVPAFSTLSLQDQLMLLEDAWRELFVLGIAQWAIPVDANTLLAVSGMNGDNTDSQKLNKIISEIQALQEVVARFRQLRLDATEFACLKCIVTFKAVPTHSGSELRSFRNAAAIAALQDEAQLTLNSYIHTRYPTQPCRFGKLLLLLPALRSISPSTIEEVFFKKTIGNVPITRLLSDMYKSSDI

| Molecule | Kd [1] | EC50 [2] |
| --- | --- | --- |
| atrophin corepressor peptide | 14.2 µM | – |
| untagged atrophin peptide | – | 1.3 µM |
| B1 | – | 3.3 µM |
